Experimental data taken from PMC3283256 (The Journal of Biological Chemistry, 2010).

Target: His-tagged N-WASP (rat, UniProt O08816 1-501)
Assay: pull-down

His-tagged N-WASP, sequence (O08816 whole entry): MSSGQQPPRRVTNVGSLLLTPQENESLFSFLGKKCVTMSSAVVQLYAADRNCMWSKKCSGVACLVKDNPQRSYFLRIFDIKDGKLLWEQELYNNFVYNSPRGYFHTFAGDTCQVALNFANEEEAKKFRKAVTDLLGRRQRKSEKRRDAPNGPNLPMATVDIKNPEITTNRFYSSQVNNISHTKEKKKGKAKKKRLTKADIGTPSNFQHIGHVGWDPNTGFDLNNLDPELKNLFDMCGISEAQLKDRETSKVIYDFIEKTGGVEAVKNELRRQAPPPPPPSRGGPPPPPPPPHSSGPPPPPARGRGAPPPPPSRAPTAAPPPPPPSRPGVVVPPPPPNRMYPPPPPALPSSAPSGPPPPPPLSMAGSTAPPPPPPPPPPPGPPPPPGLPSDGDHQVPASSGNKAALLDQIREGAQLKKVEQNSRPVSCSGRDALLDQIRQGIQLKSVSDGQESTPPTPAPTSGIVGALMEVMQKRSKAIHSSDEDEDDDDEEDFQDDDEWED

Row | binding result | Binder
1 | binds | GST-Gas7 (natural protein, mouse, UniProt Q60780 1-421, looked up) MATALQKPGMVPPPPGEESQTVILPPGWHSYLSPQGRRYYVNTTTNETTWERPSSSPGISASPAPHRSSLPTTVNGYHASGTPAHPPETAHMSLRKSTGDSQNLGSSSPGRKQSKENTITINCVTFPHPDTMPEQQLLKPTEWSYCDYFWADKKDPQGNGTVAGFELLLQKQLKGKQMQKEMSEFIRERIKIEEEYAKNLAKLSQNSLAAQEEGSLGEAWAQVKKSLADEAEVHLKFSAKLHSEVEKPLMNFRENFKKDMKKCDHHIADLRKQLASRYASVEKARKALTERQKDLEMKTQQLEIKLSNKTEEDIKKARRKSTQAGDDLMRCVDLYNQAQSKWFEEMVTTTLELERLEVERVEMIRQHLCQYTQLRHETDMFNQSTVEPVDQLLRKVDPAKDRELWVREHKTGNIRPVDMEI
2 | binds | GST-Gas7WW2 (domain or fragment, mouse, UniProt Q60780 1-151, looked up) MATALQKPGMVPPPPGEESQTVILPPGWHSYLSPQGRRYYVNTTTNETTWERPSSSPGISASPAPHRSSLPTTVNGYHASGTPAHPPETAHMSLRKSTGDSQNLGSSSPGRKQSKENTITINCVTFPHPDTMPEQQLLKPTEWSYCDYFWA
